Assay results taken from patent US20160326264A1 (SORRENTO THERAPEUTICS, published 2016).
Positions count from the first letter of the chain named. “And” between values parts separate entries of the source, which are not always exact repeats. Equal entries are not always repeated. Blank lines part the entries; values can stand above or below the binder they belong to.

What was measured:
[1] = molecular target: T1, endogenous human PSMA (prostate-specific membrane antigen) expressed on LNCaP human prostate cancer cells (human, UniProt Q04609 1-750); assay: flow cytometry on LNCaP cells
T1 construct: whole, on cells; also called PSMA-expressing LNCaP cells
Procedure: PSMA expressing LNCaP cells were harvested with enzyme-free Cell Dissociation Buffer (GIBCO) and transferred to V-Bottom 96 well-plates (50,000 cells/well). Cells were incubated on ice for 45 min with serial dilutions of anti-PSMA antibodies PSGB11, PSGB12, PSGC12, PSGD4, PSGD6 and PSA11 in FACS buffer (PBS+ 2% FBS)+NaN₃. […] After 1 wash in FACS buffer, a 1:1000 dilution of Phycoerythrin conjugated anti-Human IgG (γ-chain specific) was added and incubated for 30 min Following a final wash, fluorescence intensity was measured on an Intellicyt High Throughput Flow Cytometer (HTFC).
Data were analyzed using Graphpad Prism software and non-linear regression fit. Data points are shown as the median fluorescence intensity (MFI) of positively labeled cells +/−Standard Error. EC₅₀ values are reported as the concentration of antibody to achieve 50% of maximal PSMA antibodies binding to PSMA expressing cells.

[2] = molecular target: T1, endogenous human PSMA …; assay: cell-based or functional assay
[3] = molecular target: T2, recombinant human PSMA/His (human, UniProt Q04609 44-750); assay: Octet biolayer interferometry, antibody amine-coupled to AR2G sensor, recombinant human PSMA/His in solution at 2.15 to 68.8 nM, global 1:1 fit (same value in all 6 rows)
T2 construct: not shown: His tag
Procedure: (§1) Specifically, an amine Reactive Second-Generation (AR2G) sensor was coated with antibody (15 ug/ml in acetic buffer, pH5.0) using Sulfo-N-hydroxysuccinimide/N-Ethyl-N′-(3-dimethylaminopropyl)carbodiimide hydrochloride (Sulfo-NHS/EDC) coupling methodology. The sensors were quenched with 1M pH 8.5 ethanolamine Data was collected by moving sensors to serially diluted recombinant human PSMA/His (in PBS buffer) wells, then the data was dissociated by transferring the sensors to PBS wells. A 1:1 binding model was used to fit the data.

[4] = molecular target: T2, recombinant human PSMA/His; assay: Octet biolayer interferometry, antibody amine-coupled to AR2G sensor, recombinant human PSMA/His in solution at 2.15 to 68.8 nM, global 1:1 fit; column headed kdis(1/s) (same value in all 6 rows)
Procedure: as §1

[5] = molecular target: T2, recombinant human PSMA/His; assay: BLI (Octet), antibody amine-coupled to AR2G sensor, PSMA/His in solution, 1:1 model; FIG. 4, second antibody (PSGB11; printed as PSA11)
Procedure: as §1

[6] = molecular target: T2, recombinant human PSMA/His; assay: Octet biolayer interferometry, antibody amine-coupled to AR2G sensor, recombinant human PSMA/His in solution at 0.75 to 48.1 nM, global 1:1 fit (same value in all 7 rows)
Procedure: as §1

[7] = molecular target: T2, recombinant human PSMA/His; assay: Octet biolayer interferometry, antibody amine-coupled to AR2G sensor, recombinant human PSMA/His in solution at 0.75 to 48.1 nM, global 1:1 fit; column headed kdis(1/s) (same value in all 7 rows)
Procedure: as §1

[8] = molecular target: T2, recombinant human PSMA/His; assay: BLI (Octet), antibody amine-coupled to AR2G sensor, PSMA/His in solution, 1:1 model; FIG. 3, antibody PSA11
Procedure: as §1

T2 sequence (Q04609 44-750 limits assumed): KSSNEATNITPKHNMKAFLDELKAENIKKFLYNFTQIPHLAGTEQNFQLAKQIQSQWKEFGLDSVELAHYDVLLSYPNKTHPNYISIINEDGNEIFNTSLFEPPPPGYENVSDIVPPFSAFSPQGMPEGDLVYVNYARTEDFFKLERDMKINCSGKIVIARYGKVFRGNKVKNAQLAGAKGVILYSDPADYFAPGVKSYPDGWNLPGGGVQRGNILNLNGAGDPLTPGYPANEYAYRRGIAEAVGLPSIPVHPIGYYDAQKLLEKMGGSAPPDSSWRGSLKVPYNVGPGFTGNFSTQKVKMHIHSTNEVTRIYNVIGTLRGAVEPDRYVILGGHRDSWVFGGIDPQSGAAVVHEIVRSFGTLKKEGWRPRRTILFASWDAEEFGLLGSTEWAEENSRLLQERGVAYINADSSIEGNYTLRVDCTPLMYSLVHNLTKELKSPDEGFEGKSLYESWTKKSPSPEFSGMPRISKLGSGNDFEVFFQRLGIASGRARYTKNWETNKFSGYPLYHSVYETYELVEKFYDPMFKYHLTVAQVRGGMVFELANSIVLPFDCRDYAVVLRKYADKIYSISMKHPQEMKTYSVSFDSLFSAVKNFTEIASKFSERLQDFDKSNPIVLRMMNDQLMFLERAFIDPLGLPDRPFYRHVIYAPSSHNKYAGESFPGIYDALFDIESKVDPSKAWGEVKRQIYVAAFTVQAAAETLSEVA
T1 sequence (Q04609 whole entry): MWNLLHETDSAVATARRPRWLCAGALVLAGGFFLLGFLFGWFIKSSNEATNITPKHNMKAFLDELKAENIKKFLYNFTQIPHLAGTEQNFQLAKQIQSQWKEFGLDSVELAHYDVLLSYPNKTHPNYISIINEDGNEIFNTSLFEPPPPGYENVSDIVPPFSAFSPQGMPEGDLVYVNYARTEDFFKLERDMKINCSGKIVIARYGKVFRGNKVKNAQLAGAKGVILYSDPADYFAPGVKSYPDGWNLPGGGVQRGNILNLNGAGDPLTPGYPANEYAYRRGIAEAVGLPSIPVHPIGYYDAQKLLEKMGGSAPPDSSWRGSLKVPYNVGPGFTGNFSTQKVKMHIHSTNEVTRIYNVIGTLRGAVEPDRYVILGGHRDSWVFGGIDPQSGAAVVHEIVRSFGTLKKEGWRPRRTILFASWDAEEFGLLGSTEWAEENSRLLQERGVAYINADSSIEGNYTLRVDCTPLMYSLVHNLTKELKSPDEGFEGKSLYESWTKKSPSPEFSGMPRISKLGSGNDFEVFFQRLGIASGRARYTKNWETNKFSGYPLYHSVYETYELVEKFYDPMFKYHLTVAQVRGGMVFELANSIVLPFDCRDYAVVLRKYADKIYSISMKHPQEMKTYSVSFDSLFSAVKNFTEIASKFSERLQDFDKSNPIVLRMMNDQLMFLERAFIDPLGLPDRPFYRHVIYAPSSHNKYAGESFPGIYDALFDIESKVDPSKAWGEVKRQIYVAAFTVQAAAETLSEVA

- EC50 [1]: 1.92 nM
B1: anti-PSMA antibody PSGD6 (antibody, V domains shown)
VH: QVQLVQSGGGLVQPGGSLRLSCAASGFTFSSYWMSWVRQAPGKGLEWVANIKQDGSEKYYVDSVKGRFTISRDNAKNSLYLQMNSLRAEDTAVYYCARVWDYYYDSSGDAFDIWGQGTMVTVSS
VL: DIVMTQSPSSVSASVGDRVTITCRASQAISSWLAWYQQKPGKAPKLLIYAASSLQSGVPSRFSGSGSGTDFTLTISSLQPEDFATYYCQQAYSFPVTFGPGTKVDIK
notes: Fully human IgG
- Cell killing, 2-hours-wash method (IC50, nM); antibody pre-complexed with Protein G-MMAF, LNCaP cells, Cell Titer Glo [2]: 1.13 nM
- Cell killing, No wash method (IC50, nM); antibody pre-complexed with Protein G-MMAF, LNCaP cells, Cell Titer Glo [2]: 0.04 nM

- EC50 [1]: 1.3 nM
B2: anti-PSMA antibody PSGG6 (antibody, V domains shown)
VH: B1 VH
VL: EIVLTQSPSSLSASVGDRVTITCRASQGISSYLAWYQQKPGKAPKLLIYAASTLQSGVPSRFSGSGSGTDFTLTISSLQPEDFATYYCQQLNSYPRGITFGQGTKLEIK
notes: Fully human IgG

- EC50 [1]: 3.15 nM
B3: anti-PSMA antibody PSGD3 (antibody, V domains shown)
VH: B1 VH
VL: DIVMTQSPSSVSASVGDRVTITCRASQDINNWLAWYQQKAGKAPKLLIYVATKLQNGVPSRFSGSGSGTDFTLSISNLQPEDFATYYCQQAKSFPYTFGQGTKLEIK
notes: Fully human IgG
- Cell killing, 2-hours-wash method (IC50, nM); antibody pre-complexed with Protein G-MMAF, LNCaP cells, Cell Titer Glo [2]: 2.24 nM
- Cell killing, No wash method (IC50, nM); antibody pre-complexed with Protein G-MMAF, LNCaP cells, Cell Titer Glo [2]: 0.12 nM

- EC50 [1]: 3.84 nM
B4: anti-PSMA antibody PSGC8 (antibody, V domains shown)
VH: B1 VH
VL: AIRMTQSPSSVSASVGDRVTITCRASQGISSWLAWYQQKPGKAPKLLIYAASSLQSGVPSRFSGSGSGTDFTLTISSLKPEDFATYYCQQANSFPRALTFGGGTKVEIK
notes: Fully human IgG

- EC50 [1]: 2.84 nM
B5: anti-PSMA antibody PSGC12 (antibody, V domains shown)
VH: B1 VH
VL: DIVMTQSPSSVSASVGDRVTITCRASQDVGTWLAWYQQKPGRAPKLLIYVASSLQSGVPSRFSGSGSGTDFTLTISSLQPEDSATYYCQQAKGIPYTFGQGTKLEIK
notes: Fully human IgG

- EC50 [1]: 1.98 nM and 1.83 nM
- Kd [3]: 0.677 nM
- kon [3]: 97000 M⁻¹ s⁻¹
- koff [4]: 6.57e-05 s⁻¹
- Kd [5]: ~0.68 nM
B6: anti-PSMA antibody PSGB11 (antibody, V domains shown)
VH: B1 VH
VL: EIVLTQSPSTLSASVGDRVTITCRASQSISSWLAWYQQKPGKAPRLLIYAASILQRGVPSRFSGSGSETDFTLTISSLQPEDLATYYCQETYSNLFTFGPGTKVDIK
notes: Fully human IgG
- Cell killing, 2-hours-wash method (IC50, nM); antibody pre-complexed with Protein G-MMAF, LNCaP cells, Cell Titer Glo [2]: 1.6 nM
- Cell killing, No wash method (IC50, nM); antibody pre-complexed with Protein G-MMAF, LNCaP cells, Cell Titer Glo [2]: 0.04 nM

- EC50 [1]: 2.05 nM
B7: anti-PSMA antibody PSGC9 (antibody, V domains shown)
VH: B1 VH
VL: AIRMTQSPSTLSASVGDRVTITCRASQNIYGWLAWYQQKPGKAPELLIYAASSLQSGVPSRFSGSGSGTDFTLTINSLQPEDFATYYCQQSYTIPFTFGPGTKVDIK
notes: Fully human IgG
- Cell killing, 2-hours-wash method (IC50, nM); antibody pre-complexed with Protein G-MMAF, LNCaP cells, Cell Titer Glo [2]: 1.22 nM
- Cell killing, No wash method (IC50, nM); antibody pre-complexed with Protein G-MMAF, LNCaP cells, Cell Titer Glo [2]: 0.06 nM

- EC50 [1]: 1.59 nM
B8: anti-PSMA antibody PSGD4 (antibody, V domains shown)
VH: B1 VH
VL: B1 VL with V11L, T20S, A28G, S31T, K45D, S53N, Y92N, V96L, P100G, D105E
notes: Fully human IgG
- Cell killing, 2-hours-wash method (IC50, nM); antibody pre-complexed with Protein G-MMAF, LNCaP cells, Cell Titer Glo [2]: 2.09 nM
- Cell killing, No wash method (IC50, nM); antibody pre-complexed with Protein G-MMAF, LNCaP cells, Cell Titer Glo [2]: 0.06 nM

- EC50 [1]: 2.4 nM
- Kd [6]: 0.681 nM
- kon [6]: 88100 M⁻¹ s⁻¹
- koff [7]: 6e-05 s⁻¹
- Kd [8]: ~0.67 nM
B9: anti-PSMA antibody PSA11 (antibody, V domains shown)
VH: B1 VH
VL: B1 VL with D1V, V3W, A28G, S53N, Y92N, V96L, P100G
notes: Fully human IgG (detected with anti-human IgG, gamma-chain specific)
- Cell killing, 2-hours-wash method (IC50, nM); antibody pre-complexed with Protein G-MMAF, LNCaP cells, Cell Titer Glo [2]: 1.55 nM
- Cell killing, No wash method (IC50, nM); antibody pre-complexed with Protein G-MMAF, LNCaP cells, Cell Titer Glo [2]: 0.08 nM

- EC50 [1]: 1.92 nM
B10: anti-PSMA antibody PSGE10 (antibody, V domains shown)
VH: B1 VH
VL: DVVMTQSPSSVSASVGDRVTITCRASQGISSWLAWYQQKPGKAPKLLIYAASTLQSGVPSRFSGSGSGTDFTLTINNLQPEDFATYYCQQTASFPINFGGGTKVEIK
notes: Fully human IgG
- Cell killing, 2-hours-wash method (IC50, nM); antibody pre-complexed with Protein G-MMAF, LNCaP cells, Cell Titer Glo [2]: 1.58 nM
- Cell killing, No wash method (IC50, nM); antibody pre-complexed with Protein G-MMAF, LNCaP cells, Cell Titer Glo [2]: 0.08 nM

- EC50 [1]: 2.08 nM
B11: anti-PSMA antibody PSGF9 (antibody, V domains shown)
VH: B1 VH
VL: B1 VL with D1A, V3Q, A28G, F83I, Q90E, A91S, F94T, V96F
notes: Fully human IgG
- Cell killing, 2-hours-wash method (IC50, nM); antibody pre-complexed with Protein G-MMAF, LNCaP cells, Cell Titer Glo [2]: 1.33 nM
- Cell killing, No wash method (IC50, nM); antibody pre-complexed with Protein G-MMAF, LNCaP cells, Cell Titer Glo [2]: 0.13 nM

- EC50 [1]: 3.46 nM
B12: anti-PSMA antibody PSGB12 (antibody, V domains shown)
VH: B1 VH
VL: DVVMTQSPSTLSASVGDRVTITCRASQSISSWLAWYQQKPGKAPKLLIFAASSLQSGVPSRFSGSGSGTDFALTISSLQPEDFATYYCQESYSIPWTFGQGTKVEIK
notes: Fully human IgG
- Cell killing, 2-hours-wash method (IC50, nM); antibody pre-complexed with Protein G-MMAF, LNCaP cells, Cell Titer Glo [2]: 1.66 nM
- Cell killing, No wash method (IC50, nM); antibody pre-complexed with Protein G-MMAF, LNCaP cells, Cell Titer Glo [2]: 0.05 nM

- EC50 [1]: 3.72 nM
B13: anti-PSMA antibody PSGH3 (antibody, V domains shown)
VH: B1 VH
VL: B1 VL with A28G, S31N, A50V, Y92N, V96I, P100Q, K103R, V104L, D105E
notes: Fully human IgG
- Cell killing, 2-hours-wash method (IC50, nM); antibody pre-complexed with Protein G-MMAF, LNCaP cells, Cell Titer Glo [2]: 1.51 nM
- Cell killing, No wash method (IC50, nM); antibody pre-complexed with Protein G-MMAF, LNCaP cells, Cell Titer Glo [2]: 0.06 nM

- EC50 [1]: 2.13 nM
B14: anti-PSMA antibody PSGH8 (antibody, V domains shown)
VH: B1 VH
VL: B1 VL with V11L, A28G, S76N, Y92S, S93G, V96F
notes: Fully human IgG
